From US8435961B2, “Methods and compositions for increasing the activity of inhibitory RNA” (Massachusetts Institute of Technology, priority 2009, dated 2013) come the findings set out here.

The test deals with RNAi activity in 293T cells. The test is described as follows: Modified pGL4.72[hRlucCP] vector luciferase assay of RNAi activity. In kind it is cell-based. The conditions noted are these: overexpression from pEGFP-C1, 10 nM vector-target RNAi, 48 hours, vs EGFP- and G3BP-overexpressing cells (FIG. 30). From the text:
Assays for measuring RNAi activity in a cell are available in the art. For example, psiCHECK™-1, psiCHECK™-2, and pGL4.72[hRlucCP]™ vector assay systems provide methods for the measurement of RNAi activity in a cell. In these assays systems, luciferase is used a primary reporter gene and a target sequence (i.e., the target of one or more RNAi molecules) is cloned a multiple cloning region located downstream of the luciferase translational stop codon. Initiation of the RNAi process towards the target gene results in the cleavage and subsequent degradation of the fusion mRNA encoded by the vectors (i.e., upon treatment of the transfected cell with a vector-target RNAi molecule). Measurement of decreased luciferase activity in the transfected cells following treatment with the vector-target RNAi indicates the activity of RNAi in the cell. […]
Additional experiments were performed to determine the effect of PARP13 knockdown on miRNA activity. […] In a second set of experiments, the ability of the vector-target RNAi to reduce the expression of luciferase was measured in 293T cells transfected with pGL4.72[hRlucCP]™ vector, 20 nM vector-target RNAi, and 20 nM of negative RNAi control for PARP13 siRNA (siNeg; AllStars Negative Control siRNA; Qiagen Catalog No. 1027280) or PARP13 siRNA (siPARP13; SEQ ID NO: 40) following treatment with 0 or 30 nM pateamine A for 2 hours. […]

B1: PARP13: PARP13 overexpressed from a pEGFP-C1 plasmid (protein)
chain: ADPEVCCFITKILCAHGGRMALDALLQEIALSEPQLCEVLQVAGPDRFVVLETGGEAGITRSVVATTRARVCRRKYCQRPCDNLHLCKLNLLGRCNYSQSERNLCKYSHEVLSEENFKVLKNHELSGLNKEELAVLLLQSDPFFMPEICKSYKGEGRQQICNQQPPCSRLHICDHFTRGNCRFPNCLRSHNLMDRKVLAIMREHGLNPDVVQNIQDICNSKHMQKNPPGPRAPSSHRRNMAYRARSKSRDRFFQGSQEFLASASASAERSCTPSPDQISHRASLEDAPVDDLTRKFTYLGSQDRARPPSGSSKATDLGGTSQAGTSQRFLENGSQEDLLHGNPGSTYLASNSTSAPNWKSLTSWTNDQGARRKTVFSPTLPAARSSLGSLQTPEAVTTRKGTGLLSSDYRIINGKSGTQDIQPGPLFNNNADGVATDITSTRSLNYKSTSSGHREISSPRIQDAGPASRDVQATGRIADDADPRVALVNDSLSDVTSTTSSRVDDHDSEEICLDHLCKGCPLNGSCSKVHFHLPYRWQMLIGKTWTDFEHMETIEKGYCNPGIHLCSVGSYTINFRVMSCDSFPIRRLSTPSSVTKPANSVFTTKWIWYWKNESGTWIQYGEEKDKRKNSNVDSSYLESLYQSCPRGVVPFQAGSRNYELSFQGMIQTNIASKTQKDVIRRPTFVPQWYVQQMKRGPDHQPAKTSSVSLTATFRPQEDFCFLSSKKYKLSEIHHLHPEYVRVSEHFKASMKNFKIEKIKKIENSELLDKFTWKKSQMKEEGKLLFYATSRAYVESICSNNFDSFLHETHENKYGKGIYFAKDAIYSHKNCPYDAKNVVMFVAQVLVGKFTEGNITYTSPPPQFDSCVDTRSNPSVFVIFQKDQVYPQYVIEYTEDKACVIS
For the molecule B1, the “decrease in the level of miRNA-mediated repression compared to control cells” value amounted to 3 fold.
